B1: Guanyl-specific ribonuclease Sa, P05798 (parent)
chain: DVSGTVCLSALPPEATDTLNLIASDGPFPYSQDGVVFQNRESVLPTQSYGYYHEYTVITPGARTRGTRRIITGEATQEDYYTGDHYATFSLIDQTC

Variants of: B1
Details: Kitasatospora aureofaciens, pH 7, CD, MOPS 30 mM, structure 1RGG, whole UniProt chain shown

Variant | ddG of mutation (higher = less stable) (25 °C, GdnHCl) [kcal/mol] | denaturant m value (25 °C, GdnHCl) [kcal/mol/M] | denaturant midpoint (higher = more stable) (25 °C, GdnHCl) [M] | unfolding free energy (25 °C, GdnHCl) [kcal/mol] | ddG of mutation (higher = less stable) (60 °C, Thermal) [kcal/mol] | heat capacity change of unfolding (60 °C, Thermal) [kcal/mol/K] | Tm (Thermal) [°C] | change of melting temperature, mutant - wild type (higher = more stable) (Thermal) [°C] | heat capacity change of unfolding (Thermal) [kcal/mol/K] | unfolding enthalpy (van 't Hoff) (Thermal) [kcal/mol] | ddG of mutation (higher = less stable) (25 °C, Urea) [kcal/mol] | denaturant m value (25 °C, Urea) [kcal/mol/M] | denaturant midpoint (higher = more stable) (25 °C, Urea) [M] | unfolding free energy (25 °C, Urea) [kcal/mol]
D25K E74K S31P S42G S48P T76P Q77G D79F | -6.3 | 2.51 | 5.4 | 13.6 | -7.7 | 1.07 |  |  |  |  |  |  |  | 
D25K E74K S31P S42G S48P T76P Q77G D79A | -4.9 | 2.4 | 5.05 | 12.1 | -2.2 | 1.15 | 75.3 | 8.7 | 1.15 | 102 |  |  |  | 
D25K E74K S31P S42G S48P T76P Q77G D79F I92D | 2.2 | 2.73 | 2.01 | 5.5 | 7.1 | 1.41 | 50.2 | -26.9 | 1.41 | 84 |  |  |  | 
D25K E74K S31P S42G S48P T76P Q77G D79F I92A | -1.9 | 2.78 | 3.22 | 9.2 | 3.2 | 1.33 | 63.9 | -13.3 | 1.33 | 102 |  |  |  | 
D25K E74K | 0.2 | 2.61 | 2.7 | 7.1 | -0.8 |  | 51.5 | 2.2 |  | 92 | -0.8 | 1.02 | 6.51 | 6.6
D25K E74K S31P S42G S48P T76P Q77G I92D | 5.1 | 2.67 | 0.83 | 2.2 | 9.6 | 1.41 | 34 | -32.6 | 1.41 | 73 |  |  |  | 
D25K E74K S31P S42G S48P T76P Q77G D79F I70D |  |  |  |  | 9.5 | 1.08 | 41.5 | -35.6 | 1.08 | 78 |  |  |  | 
D25K E74K S31P S42G S48P T76P Q77G D79F Y80A | -0.1 | 2.69 | 2.74 | 7.4 | 4.8 | 1.29 | 58 | -19.2 | 1.29 | 87 |  |  |  | 
D25K E74K S31P S42G S48P T76P Q77G | -3.9 | 2.52 | 4.44 | 11.2 | -5.3 | 1.68 | 66.6 | 17.3 | 1.68 | 105 |  |  |  | 
